Measured values from patent US20190160102A1.

Target: CD33 on MV-4-11 human AML cells (human) (UniProt P20138)
Assay: flow cytometry, cell-cell binding: HA-positive erythroid cells within the CFSE-positive MV4-11 population (negative control)

Chain of UniProt P20138 (P20138 18-364 limits assumed): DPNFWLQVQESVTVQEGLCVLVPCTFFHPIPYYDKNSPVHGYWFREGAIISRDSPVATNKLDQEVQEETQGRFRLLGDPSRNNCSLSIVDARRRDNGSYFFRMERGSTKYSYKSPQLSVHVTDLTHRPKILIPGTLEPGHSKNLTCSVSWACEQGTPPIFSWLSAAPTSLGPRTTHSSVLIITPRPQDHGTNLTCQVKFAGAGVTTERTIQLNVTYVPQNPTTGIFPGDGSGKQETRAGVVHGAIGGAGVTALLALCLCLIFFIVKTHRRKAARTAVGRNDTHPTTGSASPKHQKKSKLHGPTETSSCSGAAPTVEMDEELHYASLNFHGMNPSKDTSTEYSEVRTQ

**Q.** How did the percent of erythroid cells positive for binding to MV4-11 turn out when “HA-GPA (HA tag-Glycophorin A) expressed on erythroid cells, negative control” was run?
**A.** 10.7%
